# Laboratory results: patent US20240343771A1 (Chugai, published 2024)
# T1: human IL-12 (human, UniProt P29460 23-328; P29459 23-219)
# T1 construct: also called Interleukin-12
# T1 sequence 1: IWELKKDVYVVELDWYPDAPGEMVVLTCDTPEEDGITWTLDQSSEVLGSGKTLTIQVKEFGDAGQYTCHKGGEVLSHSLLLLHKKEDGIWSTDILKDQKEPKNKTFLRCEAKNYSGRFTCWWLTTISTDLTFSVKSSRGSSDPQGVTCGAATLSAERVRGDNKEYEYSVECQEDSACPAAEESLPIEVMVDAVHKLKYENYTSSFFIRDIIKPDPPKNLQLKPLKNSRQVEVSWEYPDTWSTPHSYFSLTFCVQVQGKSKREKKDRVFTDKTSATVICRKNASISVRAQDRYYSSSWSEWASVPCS
# T1 sequence 2: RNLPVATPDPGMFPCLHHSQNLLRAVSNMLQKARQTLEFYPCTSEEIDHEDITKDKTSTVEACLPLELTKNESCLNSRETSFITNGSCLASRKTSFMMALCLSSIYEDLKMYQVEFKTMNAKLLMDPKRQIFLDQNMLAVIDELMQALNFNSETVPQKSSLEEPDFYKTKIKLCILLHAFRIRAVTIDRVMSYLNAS
# Target: T1, human IL-12
# Test: SPR (Biacore T200), 37 C, pH 7.4; captured antibody, IL-12 analyte
# Procedure: The affinity of anti-IL-12 antibodies binding to human IL-12 at pH 7.4 were determined at 37 degrees C. using Biacore T200 instrument (Cytiva). Anti-human Fc antibody (Cytiva) was immobilized onto all flow cells (FCs) of a CM4 sensor chip using amine coupling kit (Cytiva). All antibodies and analytes were prepared in ACES pH 7.4 containing 20 mM ACES, 150 mM NaCl, 0.05% Tween 20, 0.005% NaN₃. Each antibody was captured onto the sensor surface by anti-human Fc antibody. Antibody capture levels were aimed at 50 response unit (RU). 5 nM of human IL-12 were injected as analyte, followed by dissociation. Sensor surface was regenerated each cycle with 3M MgCl₂. […] Based on the results in Table 9, it is observed that binding kinetics of anti-IL-12 antibody AbI variants towards IL-12 were not drastically changed compared to control (−/−).
row,Kd [nM],Binder
1,0.631,"Anti-IL-12 antibody Ab1 variant W103M VH/- (antibody, name in Kabat numbering, Ab1 with VH/VL interface substitutions; Kabat numbering) heavy: not shown light: DIVMTQSPLSLPVTPGEPASISCRASQSISINLHWYQQKPGQAPRLLIYFASQSISGVPSRFSGSGSGTDFTLTISSLQPEDFATYYCQQSNSFPLTFGQGTKVEIKRTVAAPSVFIFPPSDEQLKSGTASVVCLLNNFYPREAKVQWKVDNALQSGNSQESVTEQDSKDSTYSLSSTLTLSKADYEKHKVYACEVTHQGLSSPVTKSFNRGEC"
2,0.331,"Anti-IL-12 antibody Ab1 variant W103A VH/- (antibody, name in Kabat numbering, Ab1 with VH/VL interface substitutions; Kabat numbering) heavy: not shown light: DIVMTQSPLSLPVTPGEPASISCRASQSISINLHWYQQKPGQAPRLLIYFASQSISGVPSRFSGSGSGTDFTLTISSLQPEDFATYYCQQSNSFPLTFGQGTKVEIKRTVAAPSVFIFPPSDEQLKSGTASVVCLLNNFYPREAKVQWKVDNALQSGNSQESVTEQDSKDSTYSLSSTLTLSKADYEKHKVYACEVTHQGLSSPVTKSFNRGEC"
3,1.07,"Anti-IL-12 antibody Ab1 variant W103M VH/P44A, Y49A VL (antibody, name in Kabat numbering, Ab1 with VH/VL interface substitutions; Kabat numbering) heavy: not shown light: DIVMTQSPLSLPVTPGEPASISCRASQSISINLHWYQQKPGQAARLLIAFASQSISGVPSRFSGSGSGTDFTLTISSLQPEDFATYYCQQSNSFPLTFGQGTKVEIKRTVAAPSVFIFPPSDEQLKSGTASVVCLLNNFYPREAKVQWKVDNALQSGNSQESVTEQDSKDSTYSLSSTLTLSKADYEKHKVYACEVTHQGLSSPVTKSFNRGEC"
4,4.86,"Anti-IL-12 antibody Ab1 variant W103I VH/L46Q, Y49A VL (antibody, name in Kabat numbering, Ab1 with VH/VL interface substitutions; Kabat numbering) heavy: not shown light: DIVMTQSPLSLPVTPGEPASISCRASQSISINLHWYQQKPGQAPRQLIAFASQSISGVPSRFSGSGSGTDFTLTISSLQPEDFATYYCQQSNSFPLTFGQGTKVEIKRTVAAPSVFIFPPSDEQLKSGTASVVCLLNNFYPREAKVQWKVDNALQSGNSQESVTEQDSKDSTYSLSSTLTLSKADYEKHKVYACEVTHQGLSSPVTKSFNRGEC"
5,2.92,"Anti-IL-12 antibody Ab1 variant V37S, L45Q VH/Y49A, Y87M VL (antibody, name in Kabat numbering, V domains shown, Ab1 with VH/VL interface substitutions; Kabat numbering) VH: QVQLVQSGAEVKKPGSSVKVSCKASGGTFSDYYLHWSRQAPGQGQEWMGWIDPENGDTEYAPKFQGRVTITADESTSTAYMELSSLRSEDTAVYYCARNKELRYFDVWGQGTLVTVSS VL: DIVMTQSPLSLPVTPGEPASISCRASQSISINLHWYQQKPGQAPRLLIAFASQSISGVPSRFSGSGSGTDFTLTISSLQPEDFATYMCQQSNSFPLTFGQGTKVEIKR"
6,0.549,"Anti-IL-12 antibody Ab1 variant W103L VH/- (antibody, name in Kabat numbering, Ab1 with VH/VL interface substitutions; Kabat numbering) heavy: not shown light: DIVMTQSPLSLPVTPGEPASISCRASQSISINLHWYQQKPGQAPRLLIYFASQSISGVPSRFSGSGSGTDFTLTISSLQPEDFATYYCQQSNSFPLTFGQGTKVEIKRTVAAPSVFIFPPSDEQLKSGTASVVCLLNNFYPREAKVQWKVDNALQSGNSQESVTEQDSKDSTYSLSSTLTLSKADYEKHKVYACEVTHQGLSSPVTKSFNRGEC"
7,1.79,"Anti-IL-12 antibody Ab1 variant W103M VH/Y49A, Y87L VL (antibody, name in Kabat numbering, Ab1 with VH/VL interface substitutions; Kabat numbering) heavy: not shown light: DIVMTQSPLSLPVTPGEPASISCRASQSISINLHWYQQKPGQAPRLLIAFASQSISGVPSRFSGSGSGTDFTLTISSLQPEDFATYLCQQSNSFPLTFGQGTKVEIKRTVAAPSVFIFPPSDEQLKSGTASVVCLLNNFYPREAKVQWKVDNALQSGNSQESVTEQDSKDSTYSLSSTLTLSKADYEKHKVYACEVTHQGLSSPVTKSFNRGEC"
8,1.12,"Anti-IL-12 antibody Ab1 variant W103L VH/A43Q, Y49A VL (antibody, name in Kabat numbering, Ab1 with VH/VL interface substitutions; Kabat numbering) heavy: not shown light: DIVMTQSPLSLPVTPGEPASISCRASQSISINLHWYQQKPGQQPRLLIAFASQSISGVPSRFSGSGSGTDFTLTISSLQPEDFATYYCQQSNSFPLTFGQGTKVEIKRTVAAPSVFIFPPSDEQLKSGTASVVCLLNNFYPREAKVQWKVDNALQSGNSQESVTEQDSKDSTYSLSSTLTLSKADYEKHKVYACEVTHQGLSSPVTKSFNRGEC"
9,3.13,"Anti-IL-12 antibody Ab1 variant V37S, L45Q VH/A43Q, Y49A VL (antibody, name in Kabat numbering, V domains shown, Ab1 with VH/VL interface substitutions; Kabat numbering) VH: QVQLVQSGAEVKKPGSSVKVSCKASGGTFSDYYLHWSRQAPGQGQEWMGWIDPENGDTEYAPKFQGRVTITADESTSTAYMELSSLRSEDTAVYYCARNKELRYFDVWGQGTLVTVSS VL: DIVMTQSPLSLPVTPGEPASISCRASQSISINLHWYQQKPGQQPRLLIAFASQSISGVPSRFSGSGSGTDFTLTISSLQPEDFATYYCQQSNSFPLTFGQGTKVEIKR"
10,1.6,"Anti-IL-12 antibody Ab1 variant W103I VH/A43Q, Y49A VL (antibody, name in Kabat numbering, Ab1 with VH/VL interface substitutions; Kabat numbering) heavy: not shown light: DIVMTQSPLSLPVTPGEPASISCRASQSISINLHWYQQKPGQQPRLLIAFASQSISGVPSRFSGSGSGTDFTLTISSLQPEDFATYYCQQSNSFPLTFGQGTKVEIKRTVAAPSVFIFPPSDEQLKSGTASVVCLLNNFYPREAKVQWKVDNALQSGNSQESVTEQDSKDSTYSLSSTLTLSKADYEKHKVYACEVTHQGLSSPVTKSFNRGEC"

# The remaining lines, values behind:
row,Binder,Kd [nM]
1,"Anti-IL-12 antibody Ab1 variant V37S, F100aI VH/L46Q, Y49A VL (antibody, name in Kabat numbering, V domains shown, Ab1 with VH/VL interface substitutions; Kabat numbering) VH: QVQLVQSGAEVKKPGSSVKVSCKASGGTFSDYYLHWSRQAPGQGLEWMGWIDPENGDTEYAPKFQGRVTITADESTSTAYMELSSLRSEDTAVYYCARNKELRYIDVWGQGTLVTVSS VL: DIVMTQSPLSLPVTPGEPASISCRASQSISINLHWYQQKPGQAPRQLIAFASQSISGVPSRFSGSGSGTDFTLTISSLQPEDFATYYCQQSNSFPLTFGQGTKVEIKR",2.98
2,"Anti-IL-12 antibody Ab1 variant W103I VH/P44A, Y49A VL (antibody, name in Kabat numbering, Ab1 with VH/VL interface substitutions; Kabat numbering) heavy: not shown light: DIVMTQSPLSLPVTPGEPASISCRASQSISINLHWYQQKPGQAARLLIAFASQSISGVPSRFSGSGSGTDFTLTISSLQPEDFATYYCQQSNSFPLTFGQGTKVEIKRTVAAPSVFIFPPSDEQLKSGTASVVCLLNNFYPREAKVQWKVDNALQSGNSQESVTEQDSKDSTYSLSSTLTLSKADYEKHKVYACEVTHQGLSSPVTKSFNRGEC",1.57
3,"Anti-IL-12 antibody Ab1 variant W103M VH/A43Q, Y49A VL (antibody, name in Kabat numbering, Ab1 with VH/VL interface substitutions; Kabat numbering) heavy: not shown light: DIVMTQSPLSLPVTPGEPASISCRASQSISINLHWYQQKPGQQPRLLIAFASQSISGVPSRFSGSGSGTDFTLTISSLQPEDFATYYCQQSNSFPLTFGQGTKVEIKRTVAAPSVFIFPPSDEQLKSGTASVVCLLNNFYPREAKVQWKVDNALQSGNSQESVTEQDSKDSTYSLSSTLTLSKADYEKHKVYACEVTHQGLSSPVTKSFNRGEC",1.45
4,"Anti-IL-12 antibody Ab1 variant W103L VH/L46Q, Y49A VL (antibody, name in Kabat numbering, Ab1 with VH/VL interface substitutions; Kabat numbering) heavy: not shown light: DIVMTQSPLSLPVTPGEPASISCRASQSISINLHWYQQKPGQAPRQLIAFASQSISGVPSRFSGSGSGTDFTLTISSLQPEDFATYYCQQSNSFPLTFGQGTKVEIKRTVAAPSVFIFPPSDEQLKSGTASVVCLLNNFYPREAKVQWKVDNALQSGNSQESVTEQDSKDSTYSLSSTLTLSKADYEKHKVYACEVTHQGLSSPVTKSFNRGEC",3.86
5,"Anti-IL-12 antibody Ab1 variant W103L VH/Y49A, Y87L VL (antibody, name in Kabat numbering, Ab1 with VH/VL interface substitutions; Kabat numbering) heavy: not shown light: DIVMTQSPLSLPVTPGEPASISCRASQSISINLHWYQQKPGQAPRLLIAFASQSISGVPSRFSGSGSGTDFTLTISSLQPEDFATYLCQQSNSFPLTFGQGTKVEIKRTVAAPSVFIFPPSDEQLKSGTASVVCLLNNFYPREAKVQWKVDNALQSGNSQESVTEQDSKDSTYSLSSTLTLSKADYEKHKVYACEVTHQGLSSPVTKSFNRGEC",1.51
6,"Anti-IL-12 antibody Ab1 variant V37S, Y91M VH/A43Q, Y49A VL (antibody, name in Kabat numbering, V domains shown, Ab1 with VH/VL interface substitutions; Kabat numbering) VH: QVQLVQSGAEVKKPGSSVKVSCKASGGTFSDYYLHWSRQAPGQGLEWMGWIDPENGDTEYAPKFQGRVTITADESTSTAYMELSSLRSEDTAVYMCARNKELRYFDVWGQGTLVTVSS VL: DIVMTQSPLSLPVTPGEPASISCRASQSISINLHWYQQKPGQQPRLLIAFASQSISGVPSRFSGSGSGTDFTLTISSLQPEDFATYYCQQSNSFPLTFGQGTKVEIKR",1.79
7,"Anti-IL-12 antibody Ab1 variant V37S, Y91M VH/L46Q, Y49A VL (antibody, name in Kabat numbering, V domains shown, Ab1 with VH/VL interface substitutions; Kabat numbering) VH: QVQLVQSGAEVKKPGSSVKVSCKASGGTFSDYYLHWSRQAPGQGLEWMGWIDPENGDTEYAPKFQGRVTITADESTSTAYMELSSLRSEDTAVYMCARNKELRYFDVWGQGTLVTVSS VL: DIVMTQSPLSLPVTPGEPASISCRASQSISINLHWYQQKPGQAPRQLIAFASQSISGVPSRFSGSGSGTDFTLTISSLQPEDFATYYCQQSNSFPLTFGQGTKVEIKR",3.44
8,"Anti-IL-12 antibody Ab1 variant W103L VH/P44A, Y49A VL (antibody, name in Kabat numbering, Ab1 with VH/VL interface substitutions; Kabat numbering) heavy: not shown light: DIVMTQSPLSLPVTPGEPASISCRASQSISINLHWYQQKPGQAARLLIAFASQSISGVPSRFSGSGSGTDFTLTISSLQPEDFATYYCQQSNSFPLTFGQGTKVEIKRTVAAPSVFIFPPSDEQLKSGTASVVCLLNNFYPREAKVQWKVDNALQSGNSQESVTEQDSKDSTYSLSSTLTLSKADYEKHKVYACEVTHQGLSSPVTKSFNRGEC",1.34
9,"Anti-IL-12 antibody Ab1 variant W103M VH/L46Q, Y49A VL (antibody, name in Kabat numbering, Ab1 with VH/VL interface substitutions; Kabat numbering) heavy: not shown light: DIVMTQSPLSLPVTPGEPASISCRASQSISINLHWYQQKPGQAPRQLIAFASQSISGVPSRFSGSGSGTDFTLTISSLQPEDFATYYCQQSNSFPLTFGQGTKVEIKRTVAAPSVFIFPPSDEQLKSGTASVVCLLNNFYPREAKVQWKVDNALQSGNSQESVTEQDSKDSTYSLSSTLTLSKADYEKHKVYACEVTHQGLSSPVTKSFNRGEC",3.52
10,"Anti-IL-12 antibody Ab1 variant V37S, W103M VH/A43Q, Y49A VL (antibody, name in Kabat numbering, Ab1 with VH/VL interface substitutions; Kabat numbering) heavy: not shown light: DIVMTQSPLSLPVTPGEPASISCRASQSISINLHWYQQKPGQQPRLLIAFASQSISGVPSRFSGSGSGTDFTLTISSLQPEDFATYYCQQSNSFPLTFGQGTKVEIKRTVAAPSVFIFPPSDEQLKSGTASVVCLLNNFYPREAKVQWKVDNALQSGNSQESVTEQDSKDSTYSLSSTLTLSKADYEKHKVYACEVTHQGLSSPVTKSFNRGEC",0.828
